Source: publication PMC4492466

Biological target: Cdh1 (UniProt Q9R1K5)
Assay: Flag IP of Cdh1, HA-FMRP blot
Settings: reference: wild type FMRP; sites S499

binding against the reference: stronger
Substance: FMRP (from UniProt P35922) S499A
